Source: PMC6349045

What was measured:
[1] = molecular target: T1, NP220 DNA-binding domain (NP220DB) (UniProt Q14966 1240-1478); assay: competition
T1 sequence: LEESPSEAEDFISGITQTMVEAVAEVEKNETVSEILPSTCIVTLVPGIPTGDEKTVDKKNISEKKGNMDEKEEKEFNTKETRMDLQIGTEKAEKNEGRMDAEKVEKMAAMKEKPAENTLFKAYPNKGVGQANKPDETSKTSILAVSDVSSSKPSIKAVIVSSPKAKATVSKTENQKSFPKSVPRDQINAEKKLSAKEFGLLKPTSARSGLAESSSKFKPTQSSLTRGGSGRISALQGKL

[2] = molecular target: T1, NP220 DNA-binding domain (NP220DB); assay: EMSA
[3] = molecular target: T1, NP220 DNA-binding domain (NP220DB); assay: competition; remark: listed apart in the source

B1: DNA72 (NP220 sites deleted) (dsDNA)
DNA 1: AGGATATCTGTGGTAAGCAGTTCCTGCTCAGGGCCAAGAACAGATGGTATGCGGTCCAGCCCTCAGCAGTTT
DNA 2: AAACTGCTGAGGGCTGGACCGCATACCATCTGTTCTTGGCCCTGAGCAGGAACTGCTTACCACAGATATCCT
- binding result [1]: no binding

B2: Bio-DNA84 (MLV U3 LTR fragment) (dsDNA)
DNA 1: AGGATATCTGTGGTAAGCAGTTCCTGCCCCGGCTCAGGGCCAAGAACAGATGGTCCCCAGATGCGGTCCAGCCCTCAGCAGTTT
DNA 2: AAACTGCTGAGGGCTGGACCGCATCTGGGGACCATCTGTTCTTGGCCCTGAGCCGGGGCAGGAACTGCTTACCACAGATATCCT
- binding result [2]: binds

B3: DNA84 (unlabeled) (dsDNA)
DNA 1: B2 DNA 1
DNA 2: B2 DNA 2
- binding result [3]: binds
